Assay results published in publication PMC12291137.

Tests used:
[1] = biological target: substrate B with the designed M13 variant M13-2 (SpyCatcher-M13-2-LPETG-SpyTag(DA)); experiment: ITC; CaM (200 μM) titrated into B or P (18 μM); the paper calls K_a(c) an apparent binding constant
[2] = biological target: substrate B with the designed M13 variant M13-3 (SpyCatcher-M13-3-LPETG-SpyTag(DA)); experiment: as above
[3] = biological target: substrate B (SpyCatcher-M13-LPETG-SpyTag(DA)), with the original M13 (M13-1); experiment: kinetics of the covalent SpyTag-SpyCatcher reaction by SDS-PAGE densitometry + LC-MS of the product; A and B mixed 1:1 (10 μM each) with 0.1 equiv of SrtA or C, Tris-HCl buffer, pH 8.0, 10 mM CaCl2, 37 °C

Substance	Ka [1]	Ka [2]	k AB(c), second-order rate constant of the covalent SpyTag-SpyCatcher reaction in the catalyzed cascade (with C) [3]	k AB(s), second-order rate constant of the covalent SpyTag-SpyCatcher reaction in the spontaneous cascade (with SrtA) [3]
calmodulin (CaM) (from UniProt P0DP23 1-149) (natural protein)	20000 M⁻¹	< 100 M⁻¹		
substrate A (GGG-SpyTag-YFP)			90 M^–1 s^–1	67 M^–1 s^–1
